Measurements taken from patent US20220402979A1.

Columns and labels:
[1] = molecular target: recombinant human mis-disordered tau protein (tau151-391/4R) (human) (UniProt P10636); assay: reference line in the plot 'Affinity against pathological tau', axis KD (nM); SPR (Example 10)
Human Tau2N4R = assay: SPR; literature table, Jadhav et al. 2019; AFFINITY 'nd.'
Chain of Human Tau2N4R (single chain, as listed by the source limits assumed): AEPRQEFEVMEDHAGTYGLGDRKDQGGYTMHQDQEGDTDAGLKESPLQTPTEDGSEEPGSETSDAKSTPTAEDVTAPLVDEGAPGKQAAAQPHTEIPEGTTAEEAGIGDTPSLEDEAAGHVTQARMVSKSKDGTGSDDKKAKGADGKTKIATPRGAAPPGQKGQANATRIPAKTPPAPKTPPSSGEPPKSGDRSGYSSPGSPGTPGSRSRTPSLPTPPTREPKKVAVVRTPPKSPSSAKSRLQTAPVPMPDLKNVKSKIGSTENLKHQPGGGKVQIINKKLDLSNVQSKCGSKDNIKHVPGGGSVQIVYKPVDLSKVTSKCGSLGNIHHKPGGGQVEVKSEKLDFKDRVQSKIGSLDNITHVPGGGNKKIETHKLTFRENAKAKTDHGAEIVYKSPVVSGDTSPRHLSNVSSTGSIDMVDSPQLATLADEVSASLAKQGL

Chain of recombinant human mis-disordered tau protein (tau151-391/4R) (human) (P10636 468-708): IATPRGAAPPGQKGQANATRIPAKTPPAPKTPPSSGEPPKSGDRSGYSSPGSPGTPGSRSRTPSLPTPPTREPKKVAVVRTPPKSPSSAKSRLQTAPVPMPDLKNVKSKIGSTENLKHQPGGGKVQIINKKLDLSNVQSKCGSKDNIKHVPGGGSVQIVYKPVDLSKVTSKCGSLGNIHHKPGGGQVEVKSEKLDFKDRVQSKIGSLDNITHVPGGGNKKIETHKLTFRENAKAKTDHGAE

Kd [1] [nM] | AVIDITY (Human Tau2N4R) [pM] | Substance
0.4 | – | AADvac2
– | 0.4 | HJ8.5 (antibody)
– | 100 | HJ9.3 (antibody)
– | 7000 | HJ9.4 (antibody)
